Data reported in patent publication US12018066 (TRIAD NATIONAL SECURITY, dated 2024).
Values joined by “and” are separate entries in the source; they are usually repeats but may differ in a detail not shown here. Equal entries are not always repeated. Where two headings read alike, the source gives them in different places.

Tests used:
[1] = target: T1, SARS-CoV-2 spike protein receptor binding domain (RBD2) (SARS-CoV-2, UniProt P0DTC2 319-537); test: flow cytometry, yeast-displayed scFv, titration of biotinylated antigen
[2] = target: T1, SARS-CoV-2 spike protein receptor …
[3] = target: T1, SARS-CoV-2 spike protein receptor …; remark: listed apart in the source
[4] = target: T1, SARS-CoV-2 spike protein receptor …; test: flow cytometry, yeast-expressed scFv
[5] = target: T1, SARS-CoV-2 spike protein receptor …; remark: listed apart in the source
[6] = target: T1, SARS-CoV-2 spike protein receptor …; test: flow cytometry, yeast-displayed scFv
[7] = target: T1, SARS-CoV-2 spike protein receptor …; remark: listed apart in the source

Row | Binder | Kd [1] | Kd [2] | Kd [3] | Kd [4] | Kd [5] | Kd [6] | Kd [7]
1 | D04 scFv (scFv) scFv: SYVLTQPPSVSVAPGKTARITCGGNNIGWKSVHWYQQKPGQAPVLVVYNDNDRPSGVPERFSGSNSGNTATLTISRVVAGDEADYYCQVWDSSSDHVLFGGGTKLTVLSGGSTITSYNVYYTKLSSSGTQVQLVQSGAEVKKPGSSVKVSCKASGGTFSSYAISWVRQAPGQGLEWMGGIIPIFGTANYAQKFQGRVTITADESTSTAYMELSSLRSEDTAVYYCARASGRWLQFWHYYGMDVWGQGTTVTVS | 33 nM | 33 nM | – | – | – | – | –
2 | R26 scFv (scFv) scFv: SYELTQPPSVSVAPGQTATITCGGKNIESKSVHWYQQKPGQAPVLVVSDDTDRASGIPERFSGSNSGGAATLTISRVEAGDEADYYCQVWDSPSDHYVFGPGTKLTVLSGGSTITSYNVYYTKLSSSGTQVQLVESGGGVVQPGRSLRLSCAASGFTFSSYAMHWVRQAPGKGLEWVAVISYDGSNKYYADSVKGRFTISRDKAKNTLYLQMNSLRGEDTAVYYCARELSYYDSSGYLRGDWYFDLWGRGTLVTVSS | 65.3 nM | – | 65.3 nM | – | – | – | –
3 | D07 scFv (scFv) scFv: SYELTQPPSVSVAPGETARMTCGGNNIGTKGVHWYQQKPGQAPVLVVYDDSDRPSGIPERFSGSNAGNTATLTISRVEAGDEADYYCQVWDSRSDQYVFGTRTKLTVLSGGSTITSYNVYYTKLSSSGAQVTLKESGPVLVKPTETLTLTCTVSGFSLSNARMGVSWIRQPPGKALEWLAHIFSNGEKSYSTSLKSRLTISKDTSKSQVVLTMTNMDPVDTATYYCARTLDYYDSSGYLVGGAFDIWGQGTMVTVSS | 113 nM | 113 nM and 138 nM | – | 268 nM | – | – | –
4 | H01 scFv (scFv, also called H1) scFv: QPGLTQPPSVSLAPGQTARITCGGNNIGSKSVHWYQQKPGQAPVLVVYDDSDRPSGIPERFSGSNAGNTATLTISRVEAGDEADYYCQVWDSRSDQYVFGTRTKLTVLSGGSTITSYNVYYTKLSSSGAQVTLKESGPVLVKPTETLTLTCTVSGFSLSNARMGVSWIRQPPGKALEWLAHIFSNGEKSYSTSLKSRLTISKDTSKSQVVLTMTNMDPVDTATYYCARTLDYYDSSGYLVGGAFDIWGQGTMVTVSS | 66.4 nM | – | – | – | 66.4 nM | 66.4 nM | –
5 | S01 scFv (scFv, also called 501) scFv: EIVMTQSPSSLSASVGDSVTITCQASQDISNYLNWYQQKPGKAPKLLIYDASNLETGVPSRFSGGGSGTDFTLTITSLQPEDIATYYCQQYDNFPPTFGPGTKVDIKSGGSTITSYNVYYTKLSSSDTQVQLVESGGGLVKPGGSLRLSCAASGFTVGSNYMSWVRQAPGKGLEWVSVIYSGGSTYYADSVKGRFTISRDNSKNTLYLQMNSLRAEDTAVYYCARGSSGAWYFDLWGRGTLVTVSS | 44.1 nM | – | 44.8 nM | – | – | 44.1 nM | –
6 | F07 scFv (scFv) scFv: SYVLTQPPSVSVAPGQTARITCGGNNIGSKSVHWYQQKPGQAPVLVVYDDSDRPSGIPERFSGSNSGNTATLIISRVEAGDEADYYCQVWDSSSVHYVFGTGTKLTVLSGGSTITSYNVYYTKLSSSGTQVQLVQSGAEVKKPGSSVRVSCKVSGYTFTGYYMHWVRQAPGQGLEWMGIINPSGGSTSYAQKFQGRVTMTRDTSTSTVYMELSSLRSEDTAVYYCARVRVGASDAFDIWGQGTMVTVSS | 67.5 nM | – | – | 280 nM | – | 67.5 nM | 67.5 nM
7 | B04 scFv (scFv) scFv: SYVLTQPPSVSVAPGKTARITCGGNNIGIRSVHWYQQKPGQAPVLVIYYDSDRPSGIPERFSGSKSGNTATLTISRVEAGDEADYYCQVWDSSSDHPVFGGGTKLTVLSGGSTITSYNVYYTKLSSSGTQVQLVESGAEVKKPGASVKVSCKASGYTFTRYYMHWVRQAPGQGLEWMGIINPSGGTTSYAQKFQGRVTMTRDTSTSTVYMELSSLRSEDTAVYYCARSFGELTSFDYWGQGTLVTVSS | 13.9 nM | 13.9 nM | – | – | – | 13.9 nM | –
8 | H05 scFv (scFv, also called H5) scFv: SYVLTQPPSVSVAPGQTARITCGANNIGRISVHWYQQKPGQAPVLVVYDDSDRPSGIPERFSGSNFGNTATLTISRVEAGDEADYYCQVWDSYSDHVIFGGGTKLTVLSGGSTITSYNVYYTKLSSSGTQVQLVQSGAEVKKPGSSVKVSCKASGGTFSSYAISWVRQAPGQGLEWMGGIIPIFGTANYAQKFQGRVTITADESTSTAYMELSSLRSEDTAVYYCARSIFGVVIISHADGYYYGMDVWGQGTTVTVSS | 16.7 nM | – | – | – | 16.7 nM | 16.7 nM | –
9 | G07 scFv (scFv) scFv: QSVLIQPPSASGTPGQRVTISCSGSNSNFGSNSVSWYQQRPGTAPKLLIEGNNQRPSGVPERFSGSKSGTSASLAISGLQSEDEAEYSCASWDDSLNAFVFGPGTKLTVLSGGSAITSYNVYYTKLSSSGTQVQLVQSGAEVKKPGESLKISCKGSGYSFTSYWIGWVRQMPGKGLEWMGIIYPGDSDIRYSPSFQGQVTISADKSFSSAYLQWSSLKASDTAMYYCARLGATGAFDIWGQGTTVTVSS | 60.3 nM | – | – | – | 60.4 nM | 60.3 nM | –
10 | R04 scFv (scFv) scFv: EIVMTQSPSSLSASVGDRVTITCQASQDISNYLNWCQQKPGKAPKLLIYDASNLETGVPSRFSGSGSGTGFTFTISSLQPEDFATYYCQQSYSTPYTFGQGTKVEIKSGGSTITSYNVNYTKLSSSGAQVQLQQSGPGLVKSSQTLSLTCAISGDSVSSNGAAWHWIRQSPSRGLEWLGRTYYRSGWYNDYAVSVKSRITINQDTSKNQFSLQLNSVTPEDTAVYFCAREGGGGRMDVWSQGTTVTVSS | 293 nM | – | 293 nM | > 280 nM and < 421 nM and 423 nM | – | 293 nM | –
11 | E01 scFv (scFv, also called E1) scFv: SYELTQPPSVSVAPGETARITCGGDNIGRRHVHWYQQKPGQAPVLVIYDDSDRPSGIPDRFSGSNSGNTATLTIGRVEAGDEADYYCQVWGSSNDPHVFGTGTKLTVLSGGSTITSNNVYYTKLSSSGTQVQLQQWGAGLLKPSETLSLKCAVYGGSFSGYYWGWIRQSTGKGLEWIGEINRSGSTNYNPSLKSRVTISVDTSKNQFSLKLSSVTAADTAVYYCARGGARYYYGSGSYRSTPRPYYFDYWGQGTLVTVSS | 13.9 nM | – | – | 16.1 nM | – | 13.9 nM | 13.9 nM
